Measurements: patent publication US20260256934A1 (Daiichi Sankyo, published 2026)

What was measured:
[1] = biological target: T1, Recombinant Human Fc gamma RI/CD64 Protein (R&D systems) (human, UniProt P12314 16-288); assay: SPR (Biacore T200) as in Test Example 15; RU at 4.7 µM conjugate
T1 construct: His-tagged; also called human FcγRI; His-tagged human FcγRI

[2] = biological target: T2, Recombinant Human Fc gammaRIIA/CD32a (R167) Protein (R&D systems) (human, UniProt P12318 36-218); assay: SPR (Biacore T200) as in Test Example 16; RU at 4.7 µM conjugate
T2 construct: Bought protein; also called human FcγRIIa
T2 sequence (looked up): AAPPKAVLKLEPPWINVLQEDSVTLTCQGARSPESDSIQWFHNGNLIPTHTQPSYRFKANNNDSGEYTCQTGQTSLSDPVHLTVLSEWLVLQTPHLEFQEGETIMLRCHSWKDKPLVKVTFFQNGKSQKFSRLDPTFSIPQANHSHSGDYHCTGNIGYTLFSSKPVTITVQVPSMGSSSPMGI

[3] = biological target: T3, Recombinant Human Fc gamma RIIB/C (CD32b/c) Protein (R&D systems) (human, UniProt P31994 46-217); assay: SPR (Biacore T200) as in Test Example 17; RU at 4.7 µM conjugate
T3 construct: Bought protein; also called human FcγRIIb/c
T3 sequence (looked up): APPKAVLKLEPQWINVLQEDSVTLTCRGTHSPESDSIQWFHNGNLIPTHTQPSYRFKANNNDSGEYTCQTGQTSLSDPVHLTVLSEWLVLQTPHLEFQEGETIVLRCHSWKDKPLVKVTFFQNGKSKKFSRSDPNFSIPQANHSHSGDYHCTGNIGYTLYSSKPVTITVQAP

[4] = biological target: T2, Recombinant Human Fc gammaRIIA/CD32a …; assay: SPR (Biacore T200); FcγRIIa immobilised directly on CM5, antibody as analyte 0.9-4.7 µM
[5] = biological target: T3, Recombinant Human Fc gamma RIIB/C …; assay: SPR (Biacore T200); FcγRIIb/c immobilised directly on CM5, antibody as analyte 0.9-4.7 µM
[6] = biological target: T1, Recombinant Human Fc gamma RI/CD64 …; assay: SPR (Biacore T200); His-tagged FcγRI captured on anti-His chip, antibody as analyte 0.3-4.7 µM

Measured: binding result

T1 sequence (P12314 16-288 limits assumed): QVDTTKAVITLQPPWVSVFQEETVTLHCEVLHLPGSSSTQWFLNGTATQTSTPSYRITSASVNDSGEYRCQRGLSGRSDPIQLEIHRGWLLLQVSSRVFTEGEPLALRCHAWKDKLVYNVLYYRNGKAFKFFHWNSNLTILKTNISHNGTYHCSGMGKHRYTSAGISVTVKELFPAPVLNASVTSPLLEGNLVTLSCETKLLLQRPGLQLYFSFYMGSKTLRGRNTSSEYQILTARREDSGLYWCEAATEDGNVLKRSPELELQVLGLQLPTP

B1: anti-EGFR antibody 1-CDN conjugate 1 (antibody, human IgG1, kappa, L234A L235A)
heavy: QVQLQESGPGLVKPSETLSLTCTVSGGSVSSGDYYWTWIRQSPGKGLEWIGHIYYSGNTNYNPSLKSRLTISIDTSKTQFSLKLSSVTAADTAIYYCVRDRVTGAFDIWGQGTMVTVSSASTKGPSVFPLAPSSKSTSGGTAALGCLVKDYFPEPVTVSWNSGALTSGVHTFPAVLQSSGLYSLSSVVTVPSSSLGTQTYICNVNHKPSNTKVDKRVEPKSCDKTHTCPPCPAPEAAGGPSVFLFPPKPKDTLMISRTPEVTCVVVGVSHEDPEVKFNWYVDGVEVHNAKTKPREEQYNSTYRVVSVLTVLHQDWLNGKEYKCKVSNKALPAPIEKTISKAKGQPREPQVYTLPPSREEMTKNQVSLTCLVKGFYPSDIAVEWESNGQPENNYKTTPPVLDSDGSFFLYSKLTVDKSRWQQGNVFSCSVMHEALHNHYTQKSLSLSPGK
light: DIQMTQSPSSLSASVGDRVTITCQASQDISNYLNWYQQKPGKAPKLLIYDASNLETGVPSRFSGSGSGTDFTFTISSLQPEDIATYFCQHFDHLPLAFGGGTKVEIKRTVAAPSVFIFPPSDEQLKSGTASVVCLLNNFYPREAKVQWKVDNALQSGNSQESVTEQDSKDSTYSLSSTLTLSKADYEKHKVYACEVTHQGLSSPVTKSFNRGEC
modifications: CDN drug-linker 17a conjugated through the remodeled N297 glycan (SG type); average number of conjugated drugs 3.7
notes: also called modified anti-EGFR antibody 1-CDN conjugate 1; antibody-drug conjugate 1
binds: [1] | [2] | [3]

B2: modified anti-EGFR antibody 1 (antibody, human IgG1, kappa, L234A L235A)
heavy: QVQLQESGPGLVKPSETLSLTCTVSGGSVSSGDYYWTWIRQSPGKGLEWIGHIYYSGNTNYNPSLKSRLTISIDTSKTQFSLKLSSVTAADTAIYYCVRDRVTGAFDIWGQGTMVTVSSASTKGPSVFPLAPSSKSTSGGTAALGCLVKDYFPEPVTVSWNSGALTSGVHTFPAVLQSSGLYSLSSVVTVPSSSLGTQTYICNVNHKPSNTKVDKRVEPKSCDKTHTCPPCPAPEAAGGPSVFLFPPKPKDTLMISRTPEVTCVVVGVSHEDPEVKFNWYVDGVEVHNAKTKPREEQYNSTYRVVSVLTVLHQDWLNGKEYKCKVSNKALPAPIEKTISKAKGQPREPQVYTLPPSREEMTKNQVSLTCLVKGFYPSDIAVEWESNGQPENNYKTTPPVLDSDGSFFLYSKLTVDKSRWQQGNVFSCSVMHEALHNHYTQKSLSLSPGK
light: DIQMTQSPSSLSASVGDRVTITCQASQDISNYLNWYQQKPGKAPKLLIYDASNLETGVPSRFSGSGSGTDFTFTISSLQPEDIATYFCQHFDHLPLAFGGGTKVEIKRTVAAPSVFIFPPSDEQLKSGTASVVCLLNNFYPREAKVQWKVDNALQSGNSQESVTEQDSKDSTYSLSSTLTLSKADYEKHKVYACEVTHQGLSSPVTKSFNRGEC
notes: IgG1 with L234A/L235A/D265G (LALA-DG) introduced into anti-EGFR antibody A; also called LALA-DG; LALA-DG mutant anti-EGFR antibody
binds: [4] | [5] | [6]

B3: anti-EGFR antibody 1-CDN conjugate 2 (antibody, human IgG1, kappa, L234A L235A)
heavy: QVQLQESGPGLVKPSETLSLTCTVSGGSVSSGDYYWTWIRQSPGKGLEWIGHIYYSGNTNYNPSLKSRLTISIDTSKTQFSLKLSSVTAADTAIYYCVRDRVTGAFDIWGQGTMVTVSSASTKGPSVFPLAPSSKSTSGGTAALGCLVKDYFPEPVTVSWNSGALTSGVHTFPAVLQSSGLYSLSSVVTVPSSSLGTQTYICNVNHKPSNTKVDKRVEPKSCDKTHTCPPCPAPEAAGGPSVFLFPPKPKDTLMISRTPEVTCVVVGVSHEDPEVKFNWYVDGVEVHNAKTKPREEQYNSTYRVVSVLTVLHQDWLNGKEYKCKVSNKALPAPIEKTISKAKGQPREPQVYTLPPSREEMTKNQVSLTCLVKGFYPSDIAVEWESNGQPENNYKTTPPVLDSDGSFFLYSKLTVDKSRWQQGNVFSCSVMHEALHNHYTQKSLSLSPGK
light: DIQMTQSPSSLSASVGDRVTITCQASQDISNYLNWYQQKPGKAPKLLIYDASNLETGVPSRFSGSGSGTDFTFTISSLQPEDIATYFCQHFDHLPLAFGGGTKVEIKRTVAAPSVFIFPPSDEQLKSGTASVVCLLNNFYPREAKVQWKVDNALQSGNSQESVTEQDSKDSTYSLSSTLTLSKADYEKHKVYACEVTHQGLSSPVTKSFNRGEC
modifications: CDN drug-linker 17a conjugated through the remodeled N297 glycan (MSG1 type); average number of conjugated drugs 1.9
notes: also called modified anti-EGFR antibody 1-CDN conjugate 2; antibody-drug conjugate 2
binds: [1] | [2] | [3]

B4: anti-EGFR antibody B (Vectibix) (antibody, human IgG2, kappa)
heavy: QVQLQESGPGLVKPSETLSLTCTVSGGSVSSGDYYWTWIRQSPGKGLEWIGHIYYSGNTNYNPSLKSRLTISIDTSKTQFSLKLSSVTAADTAIYYCVRDRVTGAFDIWGQGTMVTVSSASTKGPSVFPLAPCSRSTSESTAALGCLVKDYFPEPVTVSWNSGALTSGVHTFPAVLQSSGLYSLSSVVTVPSSNFGTQTYTCNVDHKPSNTKVDKTVERKCCVECPPCPAPPVAGPSVFLFPPKPKDTLMISRTPEVTCVVVDVSHEDPEVQFNWYVDGVEVHNAKTKPREEQFNSTFRVVSVLTVVHQDWLNGKEYKCKVSNKGLPAPIEKTISKTKGQPREPQVYTLPPSREEMTKNQVSLTCLVKGFYPSDIAVEWESNGQPENNYKTTPPMLDSDGSFFLYSKLTVDKSRWQQGNVFSCSVMHEALHNHYTQKSLSLSPGK
light: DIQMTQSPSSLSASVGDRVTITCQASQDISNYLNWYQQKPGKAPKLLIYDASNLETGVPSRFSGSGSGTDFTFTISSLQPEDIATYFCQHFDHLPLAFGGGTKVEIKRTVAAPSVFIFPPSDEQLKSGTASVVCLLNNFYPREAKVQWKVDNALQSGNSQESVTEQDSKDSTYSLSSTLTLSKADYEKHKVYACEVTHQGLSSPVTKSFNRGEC
notes: Commercial Vectibix (IgG2), buffer-exchanged into HBS-EP+; also called anti-EGFR antibody (IgG2); IgG2
binds: [4] | [5] | [6]

B5: anti-EGFR antibody B-CDN conjugate 2 (antibody, human IgG2, kappa)
heavy: QVQLQESGPGLVKPSETLSLTCTVSGGSVSSGDYYWTWIRQSPGKGLEWIGHIYYSGNTNYNPSLKSRLTISIDTSKTQFSLKLSSVTAADTAIYYCVRDRVTGAFDIWGQGTMVTVSSASTKGPSVFPLAPCSRSTSESTAALGCLVKDYFPEPVTVSWNSGALTSGVHTFPAVLQSSGLYSLSSVVTVPSSNFGTQTYTCNVDHKPSNTKVDKTVERKCCVECPPCPAPPVAGPSVFLFPPKPKDTLMISRTPEVTCVVVDVSHEDPEVQFNWYVDGVEVHNAKTKPREEQFNSTFRVVSVLTVVHQDWLNGKEYKCKVSNKGLPAPIEKTISKTKGQPREPQVYTLPPSREEMTKNQVSLTCLVKGFYPSDIAVEWESNGQPENNYKTTPPMLDSDGSFFLYSKLTVDKSRWQQGNVFSCSVMHEALHNHYTQKSLSLSPGK
light: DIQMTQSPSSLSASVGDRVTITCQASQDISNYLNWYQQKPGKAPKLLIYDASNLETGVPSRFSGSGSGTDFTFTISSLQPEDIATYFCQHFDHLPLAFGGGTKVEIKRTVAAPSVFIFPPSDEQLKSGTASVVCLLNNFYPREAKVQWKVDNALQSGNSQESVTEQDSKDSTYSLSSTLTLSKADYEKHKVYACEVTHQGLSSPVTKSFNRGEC
modifications: CDN drug-linker 17a conjugated through the remodeled N297 glycan (MSG1 type); average number of conjugated drugs 1.9
notes: Antibody-drug conjugate of Vectibix (IgG2), DAR about 2; Light chain is inferred as for m1; also called antibody-drug conjugate 8
binds: [1] | [2] | [3]
